Test results taken from the supplement of paper PMC9233669.
This sample holds only a part of the variants without activity.

Columns and labels:
[1] = test system: biotinyl-Leu-oxazolone; assay: self-aminoacylation, catalytic enhancement (BLO) (fold over background); higher = more active; k-Seq, kA / k0A0; sequences stand for … in GGGAAUGGAUCCACAUCUACGAAUUC…UUCACUGCAGACUUGACGAAGCUG
In short: (§1)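 Mutagenized RNA pools (0.43 μM; 21-nt variable region) were treated with 2–1250 μM of each biotinyl-aminoacyl-oxazolone. Conditions were 50 μL HEPES/NaCl/KCl/MgCl2/CaCl2 buffer, 5% acetonitrile, pH 6.9–7.0, room temperature, 90 minutes. Catalytic enhancement, the median kA relative to the uncatalyzed rate, was derived from streptavidin capture, qPCR and Illumina sequencing.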

[2] = test system: biotinyl-Val-oxazolone; assay: self-aminoacylation, catalytic enhancement (BVO) (fold over background); higher = more active; k-Seq, kA / k0A0; sequences stand for … in GGGAAUGGAUCCACAUCUACGAAUUC…UUCACUGCAGACUUGACGAAGCUG
In short: as §1

[3] = test system: biotinyl-Trp-oxazolone; assay: self-aminoacylation, catalytic enhancement (BWO) (fold over background); higher = more active; k-Seq, kA / k0A0; sequences stand for … in GGGAAUGGAUCCACAUCUACGAAUUC…UUCACUGCAGACUUGACGAAGCUG
In short: as §1

[4] = test system: biotinyl-Ile-oxazolone; assay: self-aminoacylation, catalytic enhancement (BIO) (fold over background); higher = more active; k-Seq, kA / k0A0; sequences stand for … in GGGAAUGGAUCCACAUCUACGAAUUC…UUCACUGCAGACUUGACGAAGCUG
In short: as §1

[5] = test system: biotinyl-Met-oxazolone; assay: self-aminoacylation, catalytic enhancement (BMO) (fold over background); higher = more active; k-Seq, kA / k0A0; sequences stand for … in GGGAAUGGAUCCACAUCUACGAAUUC…UUCACUGCAGACUUGACGAAGCUG
In short: as §1

[6] = test system: biotinyl-Phe-oxazolone; assay: self-aminoacylation, catalytic enhancement (BFO) (fold over background); higher = more active; k-Seq, kA / k0A0; sequences stand for … in GGGAAUGGAUCCACAUCUACGAAUUC…UUCACUGCAGACUUGACGAAGCUG
In short: as §1

Sequence	self-aminoacylation [1]	self-aminoacylation [2]	self-aminoacylation [3]	self-aminoacylation [4]	self-aminoacylation [5]	self-aminoacylation [6]
UCACACUUCAAGCAAUCGGUU [Fam1B.1 aminoacylation ribozyme variant]	1.6	1.58	6.74	1.3	1.48	8.21
CCACACUCCAUGCAAUCGGUC [Fam1B.1 aminoacylation ribozyme variant]	0.901	1.05	0.663	0.982	0.676	0.866
AUUCACCUAGGUGAUCGCGUG [Fam2.2 aminoacylation ribozyme variant]	4.17	2.31	2.83	2.69	2.86	14.6
AUUCACCUAGAUCAUCGGGUU [Fam2.2 aminoacylation ribozyme variant]	1.17	1.11	1.26	1.01	0.967	0.554
AAGUUCGCUAAUAGUCGCGAG [Fam3.1 aminoacylation ribozyme variant]	2.18	2.51	4	3.31	2.09	15.2
AAGUUUACUAAUAGUCUCAAG [Fam3.1 aminoacylation ribozyme variant]	1.11	1.29	1.23	1.15	0.844	2.39
CCACGCUUCAAGCAAUCGGGC [Fam1B.1 aminoacylation ribozyme variant]	0.924	2.04	1.41	1.08	1.25	1.35
CUAUUUCAAACACUCGGUCUG [Fam1A.1 aminoacylation ribozyme variant]	0.875	0.921	0.925	0.995	0.95	1.36
AUUACCCCGGUCAUCGAGUAA [Fam2.1 aminoacylation ribozyme variant]	1.9	1.26	2.01	1.53	1.2	5.28
AUUACACUGGUCAUCGAAUGA [Fam2.1 aminoacylation ribozyme variant]	0.978	1.25	1.15	1.12	0.931	0.652
CUAGUUCAACCAAUCGGUCUG [Fam1A.1 aminoacylation ribozyme variant]	1.06	0.913	2.82	1	0.955	3.36
CAGUUUGCUAAUAGUCGGAAG [Fam3.1 aminoacylation ribozyme variant]	1.11	1.35	1.43	1.27	1.26	3.05
UUUCACCUAGGUCAACGGGUG [Fam2.2 aminoacylation ribozyme variant]	2.65	2.25	3.09	2.27	3	15.6
CUCCUUCAAACAAUCUGUCUG [Fam1A.1 aminoacylation ribozyme variant]	0.554	0.61	1.23	0.655	0.516	2.63
CCUCACUUCAACCAAUCGGUC [Fam1B.1 aminoacylation ribozyme variant]	1.84	1.27	27.6	1.28	1.35	57.5
AUUACCCUUGUGAUCGAGUGA [Fam2.1 aminoacylation ribozyme variant]	7.77	3.53	9.16	3.2	7.15	50.1
GAUCACCUAGGUCAUCGGGUG [Fam2.2 aminoacylation ribozyme variant]	3.71	3.54	5.58	3.45	3.44	17.2
AUGACCCUGGUCAUAGAGUGA [Fam2.1 aminoacylation ribozyme variant]	6.95	3.59	6.89	3.35	7.12	46.6
AAGUUUGCUAACAGACGCAAG [Fam3.1 aminoacylation ribozyme variant]	0.38	0.733	0.444	0.512	0.478	1.06
AGUCACCUAGGUCAUCGGGCG [Fam2.2 aminoacylation ribozyme variant]	4.87	4.05	5.95	4.56	5.28	25.5
AAGUUGGCUACUAGUCGCAAG [Fam3.1 aminoacylation ribozyme variant]	1.86	1.76	1.42	1.65	1.2	1.58
AUUGCCCUGGUCAUCGCGUGA [Fam2.1 aminoacylation ribozyme variant]	26.3	12	23.6	9.62	23.1	157
AUUGCCCUGGUCAUCGAGUCA [Fam2.1 aminoacylation ribozyme variant]	0.777	0.894	0.652	0.957	0.817	0.963
AAAUUUGCUAAUAGUGGCAAG [Fam3.1 aminoacylation ribozyme variant]	0.7	0.74	0.533	1.01	0.697	0.608
AUUCACUCAGGUCAUCGGGUG [Fam2.2 aminoacylation ribozyme variant]	6.71	4.16	4.79	3.48	4.85	41.3
CCACUUGAAACAAUCGGUCUG [Fam1A.1 aminoacylation ribozyme variant]	1.03	1.18	0.785	1.15	1.19	0.824

Sequence	self-aminoacylation [1]	self-aminoacylation [2]	self-aminoacylation [3]	self-aminoacylation [4]	self-aminoacylation [5]	self-aminoacylation [6]
AAGUCUGCUAAUGGUCGCAAG [Fam3.1 aminoacylation ribozyme variant]	0.959	0.865	0.919	0.882	1.3	5.79
AUGCACCUACGUCAUCGGGUG [Fam2.2 aminoacylation ribozyme variant]	7.54	4.21	6.56	3.57	7.02	60.7
AUUAGCCUGGUCUUCGAGUGA [Fam2.1 aminoacylation ribozyme variant]	5.63	3.28	6.87	3.5	5.53	35.9
AUUCACCUAGGGCAUGGGGUG [Fam2.2 aminoacylation ribozyme variant]	12	5.39	9.2	5.82	10.1	81.4
AAUCACCUAGGUUAUCGGGUG [Fam2.2 aminoacylation ribozyme variant]	4.57	4.23	7.07	3.83	4.32	38.4
GAGUUUGCAAAUAGUCGCAAG [Fam3.1 aminoacylation ribozyme variant]	1.02	0.746	0.87	1.22	0.838	1.83
AUGUUUGCUAAUAGACGCAAG [Fam3.1 aminoacylation ribozyme variant]	0.564	0.736	0.508	0.691	0.611	0.828
AGAACCCUGGUCAUCGAGUGA [Fam2.1 aminoacylation ribozyme variant]	58.5	21.2	56.9	19.6	57.5	354
CUACUUCAAUCAAUCGUUCUG [Fam1A.1 aminoacylation ribozyme variant]	0.472	0.596	0.428	0.491	0.379	0.629
AUUCACCUUGGUCAUUGGGUG [Fam2.2 aminoacylation ribozyme variant]	3.56	2.17	3.18	2.11	2.9	21.4
AAGUUUGCUAAUAGUCGAAAU [Fam3.1 aminoacylation ribozyme variant]	1.01	1.37	2	1.31	1.39	1.52
AUUCACCUAGGUUAUCGGGAG [Fam2.2 aminoacylation ribozyme variant]	1.17	1.55	0.528	1.21	1.17	0.308
GAGUUUGCUAAUACUCGCAAG [Fam3.1 aminoacylation ribozyme variant]	1.01	1.07	1.12	1.03	0.939	1.09
AUUCACAUAGGUCACCGGGUG [Fam2.2 aminoacylation ribozyme variant]	7.78	4.6	5.42	4.8	5.7	42.3
AAGUUUGCUAAUAGUCGGAAC [Fam3.1 aminoacylation ribozyme variant]	0.951	0.851	1.05	1.05	1.01	0.662
AAUCACCUAGGUCAUCGGAUG [Fam2.2 aminoacylation ribozyme variant]	0.798	1.19	1.08	1.06	0.909	0.476
GAGUUUGCUAAUAUUCGCAAG [Fam3.1 aminoacylation ribozyme variant]	1.46	1.36	1.62	2.04	1.45	1.73
AAGUUUGUUAAUAGUCACAAG [Fam3.1 aminoacylation ribozyme variant]	0.749	0.941	0.701	1.06	0.982	1.16
AUUACCCUGGUCAUCCAGCGA [Fam2.1 aminoacylation ribozyme variant]	4.08	2.68	3.97	2.7	3.38	10.1
AUUACCCGGGUCAUCGAGUGU [Fam2.1 aminoacylation ribozyme variant]	3.19	2.11	3.42	2.33	3.48	10.8
CUACUUCAAACAAUCGGUACG [Fam1A.1 aminoacylation ribozyme variant]	0.425	0.577	0.839	0.461	0.396	2.05
AUUCACCUAGCUCAGCGGGUG [Fam2.2 aminoacylation ribozyme variant]	3.49	2.09	2.83	2.08	2.68	10.6
AUUCCCCUAGGUCAUCGGAUG [Fam2.2 aminoacylation ribozyme variant]	3.28	3.49	4.36	3.04	2.88	2.14
AUUACCGUGGUCAGCGAGUGA [Fam2.1 aminoacylation ribozyme variant]	4.64	3.1	6.24	3.02	4.54	19.3
CUUACCCUGGUCAUCGGGUGA [Fam2.1 aminoacylation ribozyme variant]	17.1	7.68	13.9	5.25	16	93.6
